This is an account of results in patent publication US20210309981, “VARIANT TYPE V CRISPR/CAS EFFECTOR POLYPEPTIDES AND METHODS OF USE THEREOF” (The Regents of the University of California, published 2021).

The series addresses T1, dCasX (D672A-E769A-D935A) (Deltaproteobacteria, D672A,E769A,D935A).
T1 chain: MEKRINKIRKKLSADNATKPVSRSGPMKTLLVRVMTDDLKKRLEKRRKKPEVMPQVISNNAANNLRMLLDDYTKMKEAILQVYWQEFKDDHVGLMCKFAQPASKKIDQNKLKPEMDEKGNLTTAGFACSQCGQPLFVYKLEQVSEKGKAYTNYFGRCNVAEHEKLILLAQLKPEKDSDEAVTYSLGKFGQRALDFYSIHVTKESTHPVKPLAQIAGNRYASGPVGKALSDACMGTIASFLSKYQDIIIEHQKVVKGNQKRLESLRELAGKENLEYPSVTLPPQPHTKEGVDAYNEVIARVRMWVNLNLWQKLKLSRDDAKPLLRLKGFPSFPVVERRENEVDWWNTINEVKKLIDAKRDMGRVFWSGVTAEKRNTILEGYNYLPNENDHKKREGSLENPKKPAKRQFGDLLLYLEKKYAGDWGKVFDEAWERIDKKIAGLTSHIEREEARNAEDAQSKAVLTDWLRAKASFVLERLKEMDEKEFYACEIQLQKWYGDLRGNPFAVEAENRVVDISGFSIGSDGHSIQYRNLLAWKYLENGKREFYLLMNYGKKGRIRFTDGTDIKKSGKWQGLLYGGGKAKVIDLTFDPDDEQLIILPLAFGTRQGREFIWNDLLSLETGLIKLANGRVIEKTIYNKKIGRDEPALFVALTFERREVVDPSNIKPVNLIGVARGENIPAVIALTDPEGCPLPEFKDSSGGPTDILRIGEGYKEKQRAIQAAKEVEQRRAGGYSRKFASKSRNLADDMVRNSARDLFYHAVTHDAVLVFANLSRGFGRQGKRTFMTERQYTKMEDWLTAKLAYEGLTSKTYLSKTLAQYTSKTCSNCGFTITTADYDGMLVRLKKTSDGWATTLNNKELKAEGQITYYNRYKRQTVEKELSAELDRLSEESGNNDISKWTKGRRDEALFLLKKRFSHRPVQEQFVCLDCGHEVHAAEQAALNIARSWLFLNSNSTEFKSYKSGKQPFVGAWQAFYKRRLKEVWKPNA
The series can be described thus: structure; binary CasX-gRNA complex by SEC and cryo-EM; wild-type vs triple mutant not explicitly stated. To be noted: tags: 2CT-10 vector; tag removed by TEV. In general terms: In gel filtration, larger molecules generally elute earlier.

B1: CasX sgRNA (in vitro transcribed; listed sequence is the DNA transcription template) (ssRNA)
RNA: GGCGCGUUUAUUCCAUUACUUUGGAGCCAGUCCCAGCGACUAUGUCGUAUGGACGAAGCGCUUAUUUAUCGGAGAGAAACCGAUAAGUAAAACGCAUCAAAGUCCUGCAGCAGAAAAUCAAA
For the molecule B1, the binding result is “binds”.
